These results are taken from the Human Domainome abundance scans (Beltran et al. 2025).

B1: Zinc finger MYM-type protein 3, residues 589 to 668; numbered along this chain, Q14202 (parent)
chain: LSCHYCHSLFSGKPEVLDWQDQVFQFCCRDCCEDFKRLRGVVSQCEHCRQEKLLHEKLRFSGVEKSFCSEGCVLLYKQDF

± gives the uncertainty stated by the source.

The variants in the series derive from B1. The experiment in a line: abundance fitness (aPCA) (normalised: wild type 0, dead -1); higher = more abundant; growth selection in yeast, the domain comes from the species named. As to conditions: Homo sapiens.
Turning to LSCHYCHSLFSGKPEVLDWQDQVFQFCCRDCCEDFKRLRGVVSQCEHCRQEKLLHEKLRFSGVEKSFCSRGCVLLYKQDF [E70R], the abundance fitness is -0.687 ± 0.31.

LSCHYCHSLFSGKPEVLDWQDQVFQFCCRDCCEDFKRLRGVVSQCEHCRQEKLLHEKLRFSGVEKSFCSIGCVLLYKQDF [E70I]: the abundance fitness turned out to be 0.781 ± 0.38.

Consider LSCHYCHSLFSGKPEVLDWQDQVFQFCCRDCCEDFKRLRGVVSQCEHCRLEKLLHEKLRFSGVEKSFCSEGCVLLYKQDF [Q50L], for which the abundance fitness was -0.542 ± 0.16.

Consider LSCHYCHSLFSGKPEVLDWQDQVFQFCCRDCCEDFKRLRGVVSWCEHCRQEKLLHEKLRFSGVEKSFCSEGCVLLYKQDF [Q44W], for which the abundance fitness came to 0.53 ± 0.095.

Consider LSCHYCHSLFSGKPEVLDWQDQVFQFCCRDCCEDFKRLRGVVSQCEHCRQEKLLHEKLRFSGVEKSFCSEGCVLSYKQDF [L75S], for which the abundance fitness turned out to be 0.258 ± 0.11.

On to LSCHYCHSLFSGKPEVLDWQDQVFQFCCRDCCGDFKRLRGVVSQCEHCRQEKLLHEKLRFSGVEKSFCSEGCVLLYKQDF [E33G], for which the abundance fitness is -0.157 ± 0.04.

On to LSCHYCHGLFSGKPEVLDWQDQVFQFCCRDCCEDFKRLRGVVSQCEHCRQEKLLHEKLRFSGVEKSFCSEGCVLLYKQDF [S8G], for which the abundance fitness came to 0.248 ± 0.041.

For the variant LSCHYCHSLFSGKPEVLDWQDQVFQFCCWDCCEDFKRLRGVVSQCEHCRQEKLLHEKLRFSGVEKSFCSEGCVLLYKQDF [R29W], the abundance fitness is -0.049 ± 0.047.

Turning to LSCHYCHSLFSGKPEVLDWQDQVFQFCCPDCCEDFKRLRGVVSQCEHCRQEKLLHEKLRFSGVEKSFCSEGCVLLYKQDF [R29P], the abundance fitness is 0.068 ± 0.056.

Consider LSCHYCHSLFSGKPEVGDWQDQVFQFCCRDCCEDFKRLRGVVSQCEHCRQEKLLHEKLRFSGVEKSFCSEGCVLLYKQDF [L17G], for which the abundance fitness is -0.135 ± 0.041.

Turning to LSCHYCHSLFSGKPEVVDWQDQVFQFCCRDCCEDFKRLRGVVSQCEHCRQEKLLHEKLRFSGVEKSFCSEGCVLLYKQDF [L17V], the abundance fitness was -0.027 ± 0.044.

For LSCHYCHSLFSGKPEVLDWQDQVFQFCCRDCCEDFKRLRGVVSQCEHCRQEKLLHEKLRFSGVEDSFCSEGCVLLYKQDF [K65D], the abundance fitness is -0.711 ± 0.25.

Consider LSCHYCHSQFSGKPEVLDWQDQVFQFCCRDCCEDFKRLRGVVSQCEHCRQEKLLHEKLRFSGVEKSFCSEGCVLLYKQDF [L9Q], for which the abundance fitness is 0.093 ± 0.045.

LSGHYCHSLFSGKPEVLDWQDQVFQFCCRDCCEDFKRLRGVVSQCEHCRQEKLLHEKLRFSGVEKSFCSEGCVLLYKQDF [C3G]: the abundance fitness is -1.01 ± 0.088.

For LSKHYCHSLFSGKPEVLDWQDQVFQFCCRDCCEDFKRLRGVVSQCEHCRQEKLLHEKLRFSGVEKSFCSEGCVLLYKQDF [C3K], the abundance fitness is -0.837 ± 0.097.

As to LSSHYCHSLFSGKPEVLDWQDQVFQFCCRDCCEDFKRLRGVVSQCEHCRQEKLLHEKLRFSGVEKSFCSEGCVLLYKQDF [C3S], the abundance fitness was -1.06 ± 0.098.

LSCHYCHSLFSGKPEVLDWQDQVFQFCCRDCCEDFKRLRGVVSQCEHCWQEKLLHEKLRFSGVEKSFCSEGCVLLYKQDF [R49W]: the abundance fitness is -0.327 ± 0.27.

Consider LSCHYCHSLFSGKPEVLDWQDQVFQFCCRDICEDFKRLRGVVSQCEHCRQEKLLHEKLRFSGVEKSFCSEGCVLLYKQDF [C31I], for which the abundance fitness is -1.02 ± 0.26.

For the variant LSCHYCHSLFSGKPEVLDWQDQVFQFCCRDSCEDFKRLRGVVSQCEHCRQEKLLHEKLRFSGVEKSFCSEGCVLLYKQDF [C31S], the abundance fitness is -0.986 ± 0.13.

For LSCWYCHSLFSGKPEVLDWQDQVFQFCCRDCCEDFKRLRGVVSQCEHCRQEKLLHEKLRFSGVEKSFCSEGCVLLYKQDF [H4W], the abundance fitness was determined as 0.079 ± 0.045.

With LSCKYCHSLFSGKPEVLDWQDQVFQFCCRDCCEDFKRLRGVVSQCEHCRQEKLLHEKLRFSGVEKSFCSEGCVLLYKQDF [H4K], the abundance fitness turned out to be 0.179 ± 0.051.

As to LSCHYCHSLFSGKPEVLDWQDQVFQFCCRACCEDFKRLRGVVSQCEHCRQEKLLHEKLRFSGVEKSFCSEGCVLLYKQDF [D30A], the abundance fitness was determined as 0.027 ± 0.043.

For LSCHYCHSLFSGKPEVLDWQDQVFQFCCRNCCEDFKRLRGVVSQCEHCRQEKLLHEKLRFSGVEKSFCSEGCVLLYKQDF [D30N], the abundance fitness was -0.069 ± 0.1.

Take LSCHYCHSLFSGKPEVLDWQDQVFQFCCRTCCEDFKRLRGVVSQCEHCRQEKLLHEKLRFSGVEKSFCSEGCVLLYKQDF [D30T]: the abundance fitness is 0.131 ± 0.044.

Consider LSCHYCHSLFSGKPEVLDWQDQVFQFCCRCCCEDFKRLRGVVSQCEHCRQEKLLHEKLRFSGVEKSFCSEGCVLLYKQDF [D30C], for which the abundance fitness came to 0.008 ± 0.053.

In the case of LSCHYCHSLFSGKPEVLDWQDQVFQFCCRDCCEDFKRLRGVVMQCEHCRQEKLLHEKLRFSGVEKSFCSEGCVLLYKQDF [S43M], the abundance fitness worked out at 0.105 ± 0.11.

For LSCHYCHSLFSGKPEVLDWQDQVFQFCCRDCCEDFKRLRGVVSQCEHCRQDKLLHEKLRFSGVEKSFCSEGCVLLYKQDF [E51D], the abundance fitness is 0.187 ± 0.35.

In the case of LSCHYCHSLFSGKPEVLDWQDQVFQFCCRDCCEDFKRLRGVVSQCEHCRQWKLLHEKLRFSGVEKSFCSEGCVLLYKQDF [E51W], the abundance fitness worked out at 0.537 ± 0.098.

Consider LSCHYCHSLFSGKPEVLDWQDQVFQFNCRDCCEDFKRLRGVVSQCEHCRQEKLLHEKLRFSGVEKSFCSEGCVLLYKQDF [C27N], for which the abundance fitness is -0.706 ± 0.099.

With LSCHYCHSLFSGKPEVLDWQDQVFQFGCRDCCEDFKRLRGVVSQCEHCRQEKLLHEKLRFSGVEKSFCSEGCVLLYKQDF [C27G], the abundance fitness was -0.572 ± 0.048.

As for LSCHYCHSLFSGKPEVLDWQDQVFQFCCRDCCEDFKRLRGVVSQCEHCRQEKLLHEKLRFSGVEKSFCSEGCVLLYSQDF [K77S], the abundance fitness is -0.495 ± 0.23.

For the variant LSCHYCHSLFSGKPEVLDWQDQVFQFCCRDCCEDFKRLRGVVSQCEHCRQEKLLHEKLRFSGVEKSFCSEGCVLLYEQDF [K77E], the abundance fitness was -0.406 ± 0.18.

In the case of LSCHYCHSLFSGKPEVLDWQDQVFQFCCRDCCEDFKRLRGVVSQCEHCRQEKLLHEKLRFSGVEKSFCSEGCVLLWKQDF [Y76W], the abundance fitness was -0.542 ± 0.22.

Consider LSCHYCHSLFSGKPEVLDWQDQVFQFCCRDCCEDFKRLRGVVSQCEHCRQEKLLHEKRRFSGVEKSFCSEGCVLLYKQDF [L58R], for which the abundance fitness turned out to be 0.148 ± 0.08.

Take LSCHYCHSLFSGKPEVLDWQDQVFQFCCRDCCEDFKRLRGVVSQCEHCRQEKLLHEKHRFSGVEKSFCSEGCVLLYKQDF [L58H]: the abundance fitness turned out to be 0.542 ± 0.28.
